From patent US20050266512

Test system: native proaerolysin

Substance: trypsin
- decrease in absorbance (erythrocyte lysis in response to channel formation by active aerolysin): The solid line represents native proaerolysin activated with trypsin.
